Data on 25 sequences can be found in the DeepSol protein solubility set.

The nature of the data set: soluble on expression in E. coli; label from the status in PepcDB or PDB records.
Consider “MDNEMNYGSDYKFIPATSIESGHGIEVLRDLFCYTIQIVNICFVGNPETNDFVLVDAGMPKCANEIISIAKDRFGTNSRPKAIILTHGHFDHVGGIIELIKHWDVHVYAHQMEIPFLTGQQSYPEPDPTVEGGMVAKMSPLFPNEPIDLGNNVKALPTDGTVPHMPEFRWIHTPGHTPGHISLFREKDRTLIAGDAFVTVKQEYLYKVITQEQEISGPPRYLTTDWKAAKESVLKLEKLKPLTAVTGHGIPMSGELLSTSLKTLVQEFDKIAVPDYGKYIDKKMHLEHHHHHH”, for which the “soluble on expression in E. coli” value is “soluble”.
With “MDNLMLNNKIYLEGTVVSELEFSHEMYGEGFYTFNLEVMRLSDSKDLLNITVSERLITTMDLKIGTEIVVEGQLRSYNKFIDGNNKLILTVFARNIEYCEERSKNPNEIFLDGFICKEPVYRTTPFGREIADLLLAVNRSYNKSDYIPTIAWGRNSRFCKTLEVGDNIRIWGRLQSREYQKKISETEVVKKIAYEVSISKMEKVSVESEQNESGEEISLEHHHHHH”, the “soluble on expression in E. coli” value was “not soluble”.
The entry for “MDPELQAIREARLAQLKNNSGGTNGDRNSGANNGGGENSAPVGAAIANFLEPQALERLSRVALVRRDRAQAVETYLKKLIATNNVTHKITEAEIVSILNGIAKQQNSQNNSKIIFERKDFSEDLNSFDKQNAKN” is “not soluble”; for “MDPIKQEISEYFKDWMELYKKNAIDEMTYKGYEQTLKYLKTYMPNVLISEITASSYQRALNKFAETHAKASTKGFHTRVRASIQPLIEEGRLQKDFTTRAVVKGLEHHHHHH” it is “soluble”; for “MDPSVTLWQFLLQLLREQGNGHIISWTSRDGGEFKLVDAEEVARLWGLRKNKTNMNYDKLSRALRYYYDKNIIRKVSGQKFVYKFVSYPEVAGC” it is “soluble”.
Regarding “MDQALYSLETRFEQFQRYEQIFGFLFDLKKLQSASDDSLMASCTNLKDALTHGTHSDILASDLFYELKILREALPKEVRRPIEVLDFLQKVEGCYPNSWIAYQVLLTIPVSVASAERSFSKLKLIKSYLRSSMSQERLSDLAILSIERALVREVDFERLANDFVGKKGRRITL”, the “soluble on expression in E. coli” value is given as “soluble”.
In the case of “MDRLRFDHRVITENGNKQPLVMVINLSSISMAMMSYDFNSKPLLIFWETTKACGLKCEHCRASAILDALPGEMTFDQSINFLSHIKEFGKPYPIVILTGGDMLRKHRIWDIMDYLRSQEIPFSVSPAVTDLLTHEAILKFKEFGVSSVSISLDGMREVHEKVRGVAGVYDDTVKAIEDLISTGISMQINTVVMRSTVHDLPHVLKLIIDKGVKVWEVFFLIKTGRGIDREDLSPEEYENVNKFLLFATGYGIRIRTVESPIYRRITMQYGKNGLIKGGRLFDELREETVSLIGNPSKEYASSVIPTRDGFGIIFVGHDGEVYPSGFLPYSVGNVKDRSIVDIYRNSDLLNSIRNPDNLHGKCGLCEYRKVCGGSRARAFAYTGDPFGTDPSCIYEPSAVPE”, the “soluble on expression in E. coli” value was “not soluble”.
Consider “MDRPLLIFSGQSNRPLAQAIAEALGLPLGKSTTLRFANDNLFVRYEESLREGDVFIVQSFVPPVQDHLMELLMMVDAAKGASAARVTAVIPYFSYARSDKKDAPRISITARLIADLLQTAGADRVLTMTLHSPQVHGFFKIPVDHLSAEPVIANYFATRVDLENAVVVAPDAGDLKRASALARRLGLPLAFIDKERVSDTEVRVRMLVGEVEGKTALIVDDEISTAGSLVEAVEALMQAGAKEVYAAATHGVYVGPALDRIAKSPVKEVAATDTCPPKEGPKLRTLTVAPLFAEAIWRIHRGESVSSLFT”, for which the “soluble on expression in E. coli” value is listed as “soluble”.
Regarding “MDRRTFLKSASMKGTAIVTASAVGTEMLHAAESIGASDVASGKRNAPKAKRLPEDLQELVKDSSLLRKPDNLTVACYTFPNYHASALHDKIYGPGWTEYNLVRSARPWFQGHAQPRGPLLGEMDESKPGTWEKYNELCKQSGIDVLIWDWYWYNNEPCLHEALENGFLRASNRNDVKFACMWTNHPWYVLYPTLLPNGYKAYPPSFAPADGSLKECWQSLSYIISRYCHLENYWRIDDKPVVCIWDPNRLEKNIGVDGVKQLFAELTEFARKLGHKGLHFHSSGFYSPNSKEVGYNTAGSYNPFTWVADNYQPKNIELPDYGVAAADVAFKLWPKHHDDFAIPYLPSLSPGWDSTPRYIPPVSRPDQPNRDAWPNCVILDNENPASFKALVQSAFAYLNKHKDVPPILTIACFNEWTEGHYLLPDNRFGYGMLDALAEAVGKSDNHQIHGFFLEHHHHHH”, the “soluble on expression in E. coli” value is listed as “not soluble”.
As to “MDRVALKPFRRIAVILLAGAVIATSTSCSRDERKKEEEKHLESMMSILVQVQKNLGRIRQKEAVVVRLSSDVEGRKPKSAEQIGREINTNIRFIDSTLSASKNLVATLEKQNHESQYRIAALDRMTGQLKGELDKKELELGAMKREIAKLNRQIARLTNTVDVMDEAISDQEDQMVKAYYVVGTVDQLVSKGILVPPGPFSRFFGMRPVLANDFDLRPFRQVDITETKDIYFDKPVSRLHVITPHTKGSYELVGGKTSSLLLIRNEAEFWKKSRCLVIVVE”, the “soluble on expression in E. coli” value is “not soluble”.
As for “MDSEKIKIFTRNYKGSLIMSKRSPKSVSEKLEIVLLRLEEGKSLSWLTRNQGISKDTLSNWVRKYKEAGVDGLEESRQWKKYSKELKEQAVSDYLNGLGSLKDLTKKYGISDPYVLRSWIKSYTSGKELKATSKGMRRMKQGRKTTFEERIEIVNFTLAHEKDYQGAVEKYGVSYQQIYSWVRKFEKDGSNGLLDRRGKGLTSKPNLTPEEELRLKIKQQEERIKYLEMENGLLKKLEEIKRRNRRLEHHHHHH”, the “soluble on expression in E. coli” value is “soluble”.
For “MDSGDFSPMQSNFSLGFMSFEDIPEDARTTEMIDKIVFEEDKEYDHTQDSFRYGRVTTGVSYNLVTGKIPKTVFEQVKAKDDENDNVEFEMEHLEDKETAHKTQTFDELYESQMPKYFDYQSNFSDVNGIWTLLFDQNHYEKMSTFELQAAICAALNSKHFMMICVGIDAFNAVTGVEMSAKDRVVFRMALTRAVAGEFQPPLVKVAPKQLTGVSPMKRDISEVTSSIDVLFVPVIGVTDEVENNRFLIVVRVKGT”, the “soluble on expression in E. coli” value is recorded as “not soluble”.
With “MDSLEKIKEEVISCKKCKLWQFRTNAVPGEGYPKAEIMFVGEAPGENEDKEGRPFVGAAGKLLTQMIKEILGLERDQVFITNVVKCRPPNNRDPEEDEITACSPYLDRQIDIIMPKIIVTLGRHSTKYIFSKMGENFSSITKVRGKSYVWKYKEKEIIVFPTYHPAAALYNPNLRKILEEDFKKIRELAITPKRYTIDYFLGGKNRSWDKREKSDSNSGK”, the “soluble on expression in E. coli” value is “soluble”.
Regarding “MDSLQKTTMIDLLLRSDKRRKILLFLKEGPKNIEEITALLGSSCTAVLPQMKKLIEKGLVRQENKIYRLSTVGMIVTEKLVPLLGTIEVFENNLEYWAQKDLTGIPAFLRLKLEMLSQYEVIEPQLNRMFEPPEEFINSLKKSTEIMYFSSFFQPCFSGFDQDFLKKRTDSTFIFTKNFFERISSPHSEEYDELLLPERANLYVYDGISSLVSLTVTERFMALMLLNKKGKLDQNLLISSESEAIEWGKELFMYYREISKKIYGDKADRLLSEKIIPPGKKSGYGTGSDLLQISCLRKTKYKMAAALEHHHHHH”, the “soluble on expression in E. coli” value is on record as “not soluble”.
With “MDSQKFIDLCKKHVVDFANSQLDYTDQKKISESDIYVVWLAKTLQNNKALLSTNLFDGMYYEVTFNGDKNELYFDAYKKWRNIRFDVTEGGDQNG”, the “soluble on expression in E. coli” value was “not soluble”.
As to “MDSWYPSKELIEACLKKGFHVIAMLKTNRILYPKGIAVQAKQFARYLEPRDTRLVTVGNERYRVYRYEGALNGLDDAVVLLTWKADQPMTPEHLHGVLSTDRELSDEDILRYYAQRWSIECFFRQVKDQLKLDGYRVRHIRAVKRYWVTVLLACVYSIAESQQDISAGLNLLRTRKGHSLIEFIYDAAKQDIPIDVVKKQLHVA”, the “soluble on expression in E. coli” value was “not soluble”.
Consider “MDTEMLIDKYQLNDSEAAVLRFMDKNRDCLKSLGIREVAKASYVSTTAIINMAKKIGYSGYSELVFAYGNKHSSISFPENFSNEEKDEFIRLLSRYREKRIMVLGSGFSQNIANHFSEMLNLYGFRATANSHLEFLRENVEKDVLIFIVSNSGDTLRLAELVKLAKNHHIDLIAFVGEKKSKIGQLATLTISTETYNPQVVSEYQPNLFFGTALNQFELLLSEALKSIFI”, for which the “soluble on expression in E. coli” value is reported as “not soluble”.
Regarding “MDTGNNNNLPTLLKCNFPPYGKDYPGGFATGRFSDGRVPSDLIAEKLGLAKTLPAYMNPYLKPEDLLKGVTFASGGTGYDPLTAKIMSVISVWDQLINFKEYISKIKRHFGEEKAKDILEHSFFLVVSSSNDLAHTYLAQTHRYDRTSYANFLADSAVHFVRELHKLGARKIGVFSAVPVGCVPLQRTVFGDKELDGVILYINVYDTLFDMIQHPKKYGFEVADRGCCGKGLLAISYLCNSLNPFTCSNSSAYIFWDSYHPSERAYQVIVDNLLDKYLSKVY”, the “soluble on expression in E. coli” value was “soluble”.
Regarding “MDTLAFINRALVEEGYSLKDIKLVLITDFEPSSVEAIRRLLAVNQGVSFIGRKYVKEVLEKFGLRNVRFRAVEEIPSLEFKLPESGTVKVLPFRNSPQEASAGYLLEEERILFSGKFLGSFGEKGDTIQIFHRVFFPCRNILDYNVGLLESIGEEFEVFPFYGEKQKLSAKTLKEYFNYTVKGSVLEREVILGLVNGVLLNLSDEERENLLSSIGYLAEVDDKVIVDFYTEPNLFYEEFVNTLPDAVKSKEEFYRIVEKLLEHNFYVPLRAV”, the “soluble on expression in E. coli” value was “not soluble”.
For “MDTSLIRELAELALAGSGQHCHEEALCIAEWLERLGQDEAARLIRISSLANQGRYQEALAFAHGNPWPALEPWFALCEWHLGLGAALDRRLAGLGGSSDPALADFAAGMRAQVRT”, the “soluble on expression in E. coli” value is recorded as “soluble”.
The same measure for “MDTSLPSAILNNMVTATLILDDGLAIRYANPAAELLFSQSAKRIVEQSLSQLIQHASLDLALLTQPLQSGQSITDSDVTFVVDGRPLMLEVTVSPITWQRQLMLLVEMRKIDQQRRLTQELNQHAQQQAAKLLVRGLAHEIKNPLGGLRGAAQLLEKMLPDPSLTEYTHIIIEQADRLRALVDRLLGPQKPGK”: “not soluble”; for “MDTTEFDEIRPYNDEELPQIFEELIADPAFQKAATDAIPNVPFELLAQKIRACKSKLDFQETFCYGILWKIAADHTDGLTLDHTAVPDKSKAYTYVSNHRDIILDSGFLSILLIDQGMDTVEIAIGDNLLVYPWIKKLVRVNKSFIVQRALTMRQMLESSARMSRYMHYTINEKNQSIWIAQREGRAKDSNDRTQDSVLKMLAMGGEGDLIDRLMEMNIAPLAISYEYDPCDFLKAQEFQLKRDIEGYKKTTQDDLISMQTGLFGYKGKVHFQTAPCINDRLAQLDRSLPKQELFSSISACIDQRIHSNYRIYSGNYVAYDLLKGTSEFAGHYTPEEKQRFVTYIEQQLGKIKIPNKDEDFLRGKLLLMYANPLVNYLAACQ”: “not soluble”; for “MDVEPIFCAEQIVIPHNLADILKAYTKEVIRRQPTDLIAFSAKYFTNLANVASGVSNSSAPAKEQLRQVYTRGGSGGATLTESQVTGLCQQAGIADAVVAKVMEVGAFTPAAVDLSKFVFLCLAMSCEDFNRVCMGVFDVFSDNGSLPAQDLLTLIAHLGPDMDPEVTPAFLDAVAAELPAGGGAVTYMELCEAPSLKPKLGLS”: “not soluble”.
For “MDVEVKNKANRRHVGHNLQKIRVYFGMKQEALAADLGVNQQVISKIEKQEEIEEGLLNQIASVLGISAEVIKDFDVEKAIYNINNIRDNTFEQGATSIAQQFNPLDKIVELYERLLQSEREKIELLKKR”, the “soluble on expression in E. coli” value is listed as “not soluble”.
For the sequence “MDVLVTAGGTSEPIDNVRSITNHSSGGLGKAIAESFLAAGHTVTYVTTKHALRPTQQLDLSIKEIETTVELATTLEQLFAEKQFDAIVHAMAVSDFTTETAQTEEQFIDSFAQQLSEQTLPKTKEALVTIVQNTLNQIADIPQTATKISSDTDRLLIFLKKNPKVIQMIRDKQPQTVLVGFKLLVNVSQEELVQVAQAALVKNRCDFVLANDLMNVHETEHKGLLINETGIVQEAYSKQGIGSMIVKNVEKKWREQQ”, the “soluble on expression in E. coli” value is listed as “not soluble”.
